Source: article PMC3082538, “High-Throughput Protein Expression Using a Combination of Ligation-Independent Cloning (LIC) and Infrared Fluorescent Protein (IFP) Detection” (PLoS ONE, 2011)

Columns and labels:
Assay in all cases: pull-down; 5 µg purified GST or GST-GRF fusion immobilised on BSA-pretreated magnetic glutathione agarose beads (MagneGST) with 0.5% Nonidet-P40 and 10% BSA; incubated with 1 µg purified IFP fusion protein, room temperature, 60 min; five washes with 0.5% Nonidet-P40; eluate read by infrared imaging (700 nm) in microtiter plates, then SDS-PAGE and in-gel detection
Details in all cases: both partners purified
GST-GRF5 fusion protein = biological target: T1, GST-GRF5 fusion protein (Arabidopsis thaliana, UniProt P42645 1-268)
T1 construct: GRF5 of Arabidopsis thaliana (AGI At5g16050), open reading frame in pDEST15; Printed size 58 kDa; Gateway attB linker between GST and GRF5; source: E. coli BL21 (DE3) pLysS, purified (GSTrap HP column, Äkta-FPLC); not shown: GST, N-terminal, kept
T1 sequence (looked up): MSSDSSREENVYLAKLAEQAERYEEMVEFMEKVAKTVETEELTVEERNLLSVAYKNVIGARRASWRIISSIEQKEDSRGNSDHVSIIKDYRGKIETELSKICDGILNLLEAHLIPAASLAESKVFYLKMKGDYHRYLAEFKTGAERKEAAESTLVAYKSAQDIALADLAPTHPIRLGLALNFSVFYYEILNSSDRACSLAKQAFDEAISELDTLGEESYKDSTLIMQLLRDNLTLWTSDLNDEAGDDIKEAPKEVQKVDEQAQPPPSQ

GST-GRF4 fusion protein = biological target: T2, GST-GRF4 fusion protein (Arabidopsis thaliana, UniProt P46077 1-267)
T2 construct: GRF4 of Arabidopsis thaliana (AGI At1g35160), open reading frame in pDEST15; Printed size 58 kDa; Gateway attB linker between GST and GRF4; source: E. coli BL21 (DE3) pLysS, purified (GSTrap HP column, Äkta-FPLC); not shown: GST, N-terminal, kept
T2 sequence (looked up): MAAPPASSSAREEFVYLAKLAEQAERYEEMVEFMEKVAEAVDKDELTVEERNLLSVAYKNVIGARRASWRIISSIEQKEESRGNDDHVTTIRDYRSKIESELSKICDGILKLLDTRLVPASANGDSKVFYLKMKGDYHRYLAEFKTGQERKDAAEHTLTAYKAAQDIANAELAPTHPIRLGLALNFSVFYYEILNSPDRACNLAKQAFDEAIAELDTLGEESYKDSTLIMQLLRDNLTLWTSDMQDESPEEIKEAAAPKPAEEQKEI

GST-GRF3 fusion protein = biological target: T3, GST-GRF3 fusion protein (Arabidopsis thaliana, UniProt P42644 1-255)
T3 construct: GRF3 of Arabidopsis thaliana (AGI At5g38480), open reading frame in pDEST15; Printed size 56 kDa; Gateway attB linker between GST and GRF3; source: E. coli BL21 (DE3) pLysS, purified (GSTrap HP column, Äkta-FPLC); not shown: GST, N-terminal, kept
T3 sequence (looked up): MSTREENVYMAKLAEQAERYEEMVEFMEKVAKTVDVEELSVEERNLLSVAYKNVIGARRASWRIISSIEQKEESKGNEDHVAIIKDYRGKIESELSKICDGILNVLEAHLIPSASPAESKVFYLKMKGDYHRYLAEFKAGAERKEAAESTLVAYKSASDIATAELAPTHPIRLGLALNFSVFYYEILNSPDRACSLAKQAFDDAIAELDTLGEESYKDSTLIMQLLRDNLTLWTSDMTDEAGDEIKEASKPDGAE

GST-GRF6 fusion protein = biological target: T4, GST-GRF6 fusion protein (Arabidopsis thaliana, UniProt P48349 1-248)
T4 construct: GRF6 of Arabidopsis thaliana (AGI At5g10450), open reading frame in pDEST15; Printed size 56 kDa; Gateway attB linker between GST and GRF6; source: E. coli BL21 (DE3) pLysS, purified (GSTrap HP column, Äkta-FPLC); not shown: GST, N-terminal, kept
T4 sequence (looked up): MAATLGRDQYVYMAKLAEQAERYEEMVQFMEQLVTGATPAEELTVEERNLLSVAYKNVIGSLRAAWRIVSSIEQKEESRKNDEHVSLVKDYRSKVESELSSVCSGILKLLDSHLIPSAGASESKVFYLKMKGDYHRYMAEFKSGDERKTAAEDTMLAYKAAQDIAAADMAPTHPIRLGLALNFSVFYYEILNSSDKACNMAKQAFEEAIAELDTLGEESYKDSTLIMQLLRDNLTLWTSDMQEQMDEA

GST-GRF1 fusion protein = biological target: T5, GST-GRF1 fusion protein (Arabidopsis thaliana, UniProt P42643 1-267)
T5 construct: GRF1 of Arabidopsis thaliana (AGI At4g09000), open reading frame in pDEST15; Printed size 58 kDa; Gateway attB linker between GST and GRF1; source: E. coli BL21 (DE3) pLysS, purified (GSTrap HP column, Äkta-FPLC); not shown: GST, N-terminal, kept
T5 sequence (looked up): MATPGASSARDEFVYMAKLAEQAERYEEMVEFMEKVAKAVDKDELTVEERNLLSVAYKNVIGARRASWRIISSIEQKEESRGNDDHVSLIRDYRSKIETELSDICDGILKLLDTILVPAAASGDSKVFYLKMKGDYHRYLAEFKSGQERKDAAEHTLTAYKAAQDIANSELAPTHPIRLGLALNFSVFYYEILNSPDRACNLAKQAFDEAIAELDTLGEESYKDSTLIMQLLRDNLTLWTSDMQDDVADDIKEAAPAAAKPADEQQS

GST-GRF2 fusion protein = biological target: T6, GST-GRF2 fusion protein (Arabidopsis thaliana, UniProt Q01525 1-259)
T6 construct: GRF2 of Arabidopsis thaliana (AGI At1g78300), open reading frame in pDEST15; Printed size 57 kDa; Gateway attB linker between GST and GRF2; source: E. coli BL21 (DE3) pLysS, purified (GSTrap HP column, Äkta-FPLC); not shown: GST, N-terminal, kept
T6 sequence (looked up): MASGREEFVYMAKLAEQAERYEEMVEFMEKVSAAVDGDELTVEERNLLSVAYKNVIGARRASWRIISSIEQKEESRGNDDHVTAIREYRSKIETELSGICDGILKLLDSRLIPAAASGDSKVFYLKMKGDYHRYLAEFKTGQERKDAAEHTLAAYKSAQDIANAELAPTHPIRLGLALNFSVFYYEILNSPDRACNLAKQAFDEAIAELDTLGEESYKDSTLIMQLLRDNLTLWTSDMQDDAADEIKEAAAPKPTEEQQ

Measured: binding result

B1: TPK1(1-79)-TEV-IFP-6xHis fusion protein (domain or fragment, Arabidopsis thaliana, UniProt Q8LBL1 1-79, looked up)
chain: MSSDAARTPLLPTEKIDTMAQDFNLNSRTSSSRKRRLRRSRSAPRGDCMYNDDVKIDEPPPHPSKIPMFSDLNPNLRRV
notes: potassium channel TPK1 of Arabidopsis thaliana (AGI At5g55630), N-terminal cytosolic part, amino acids 1-79; Between TPK1(1-79) and the IFP stand residues from the LIC site and the TEV cleavage site ENLYFQG (LC2 vector: ProteinX-TEV-IFP-6xHis); Printed size 47.6-48 kDa; The IFP moiety carries the chromophore biliverdin (cells grown with hemin); also called TPK1-TEV-IFP-6xHis; …
binds: all assays above
